Experimental data from the supplement of paper PMC9112550, “Optimization of the antimicrobial peptide Bac7 by deep mutational scanning” (BMC Biology, 2022).

Tested on: Escherichia coli TOP10
Assay: shrunken log2 fold change of peptide-encoding DNA abundance (4.5 h post-induction vs induction); higher = less antimicrobial activity (less host growth inhibition)
Details: time post-induction: 4.5 h; library: site-saturation at positions 5, 18, 19, 20
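Also: peptides expressed intracellularly from a pBAD plasmid library in pooled LB shake-flask culture, induced with 0.3% L-arabinose, DNA abundance read by NGS, three biological replicates, DESeq2 with apeglm shrinkage.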

In order of falling “shrunken log2 fold change” value:
1. RRIRMRPPRLPRPRPRPEQSPRP  3.19
2. RRIRGRPPRLPRPRPRPQQTPRP  1.6
3. RRIRSRPPRLPRPRPRPGDTPRP  1.51
4. RRIRARPPRLPRPRPRPEECPRP  1.27
5. RRIRGRPPRLPRPRPRPPPIPRP  1.16
6. RRIRMRPPRLPRPRPRPPNAPRP  1.11
7. RRIRDRPPRLPRPRPRPCVGPRP  0.97
8. RRIRPRPPRLPRPRPRPKPGPRP  0.684
9. RRIRARPPRLPRPRPRPVRMPRP  0.618
10. RRIRKRPPRLPRPRPRPAWWPRP  0.577
11. RRIRARPPRLPRPRPRPIVDPRP  0.543
12. RRIRWRPPRLPRPRPRPKWAPRP  0.507
13. RRIRARPPRLPRPRPRPPNRPRP  0.499
14. RRIRKRPPRLPRPRPRPATMPRP  0.49
15. RRIRPRPPRLPRPRPRPSAAPRP  0.487
16. RRIRWRPPRLPRPRPRPPRCPRP  0.483
17. RRIRDRPPRLPRPRPRPALYPRP  0.468
18. RRIRCRPPRLPRPRPRPRLFPRP  0.437
19. RRIRARPPRLPRPRPRPQPQPRP  0.436
20. RRIRTRPPRLPRPRPRPNAAPRP  0.371
21. RRIRGRPPRLPRPRPRPLFCPRP  0.367
22. RRIRRRPPRLPRPRPRPPVQPRP  0.366
23. RRIRARPPRLPRPRPRPEEIPRP  0.289
24. RRIRWRPPRLPRPRPRPGLPPRP  0.288
25. RRIRNRPPRLPRPRPRPPDFPRP  0.272
26. RRIRTRPPRLPRPRPRPMWFPRP  0.253
27. RRIRWRPPRLPRPRPRPKSHPRP  0.249
28. RRIRCRPPRLPRPRPRPWDEPRP  0.247
29. RRIRGRPPRLPRPRPRPRVQPRP  0.218
30. RRIRSRPPRLPRPRPRPRNQPRP  0.205
31. RRIRKRPPRLPRPRPRPCTPPRP  0.192
32. RRIRQRPPRLPRPRPRPHGQPRP  0.184
33. RRIRVRPPRLPRPRPRPCTAPRP  0.172
34. RRIRARPPRLPRPRPRPMTLPRP  0.151
35. RRIRPRPPRLPRPRPRPQQPPRP  0.132
36. RRIRTRPPRLPRPRPRPWWDPRP  0.132
37. RRIRTRPPRLPRPRPRPEHQPRP  0.127
38. RRIRARPPRLPRPRPRPQEDPRP  0.124
39. RRIRWRPPRLPRPRPRPYAWPRP  0.122
40. RRIRHRPPRLPRPRPRPISYPRP  0.121
41. RRIRKRPPRLPRPRPRPNEIPRP  0.118
42. RRIRHRPPRLPRPRPRPGGLPRP  0.117
43. RRIRMRPPRLPRPRPRPLHWPRP  0.116
44. RRIRRRPPRLPRPRPRPKKWPRP  0.114
45. RRIRLRPPRLPRPRPRPMFGPRP  0.109
46. RRIRYRPPRLPRPRPRPKAKPRP  0.0915
47. RRIRGRPPRLPRPRPRPVFHPRP  0.0913
48. RRIRNRPPRLPRPRPRPTPEPRP  0.0889
49. RRIRERPPRLPRPRPRPPKKPRP  0.0812
50. RRIRIRPPRLPRPRPRPISIPRP  0.0772
51. RRIRARPPRLPRPRPRPDLEPRP  0.0744
52. RRIRYRPPRLPRPRPRPRNPPRP  0.0734
53. RRIRRRPPRLPRPRPRPMLEPRP  0.0718
54. RRIRIRPPRLPRPRPRPDDHPRP  0.07
55. RRIRTRPPRLPRPRPRPWTRPRP  0.064
56. RRIRKRPPRLPRPRPRPFRWPRP  0.0626
57. RRIRRRPPRLPRPRPRPVEVPRP  0.057
58. RRIRKRPPRLPRPRPRPWFGPRP  0.0558
59. RRIRHRPPRLPRPRPRPRDYPRP  0.0554
60. RRIRNRPPRLPRPRPRPRITPRP  0.0468
61. RRIRKRPPRLPRPRPRPCMAPRP  0.0448
62. RRIRFRPPRLPRPRPRPCTRPRP  0.0381
63. RRIRLRPPRLPRPRPRPHWEPRP  0.0215
64. RRIRPRPPRLPRPRPRPQEIPRP  0.017
65. RRIRVRPPRLPRPRPRPWQKPRP  0.015
66. RRIRTRPPRLPRPRPRPNQCPRP  0.00866
67. RRIRRRPPRLPRPRPRPEKTPRP  0.00726
68. RRIRLRPPRLPRPRPRPKENPRP  0.00493
69. RRIRNRPPRLPRPRPRPSFAPRP  0.00213
70. RRIRYRPPRLPRPRPRPVWPPRP  9.23e-05
71. RRIRNRPPRLPRPRPRPQREPRP  -0.00141
72. RRIRMRPPRLPRPRPRPCQLPRP  -0.00804
73. RRIRTRPPRLPRPRPRPDGIPRP  -0.00822
74. RRIRHRPPRLPRPRPRPMQEPRP  -0.01
75. RRIRTRPPRLPRPRPRPWPFPRP  -0.0102
76. RRIRKRPPRLPRPRPRPSQAPRP  -0.0142
77. RRIRWRPPRLPRPRPRPYWEPRP  -0.0146
78. RRIRFRPPRLPRPRPRPRYWPRP  -0.0206
79. RRIRFRPPRLPRPRPRPQYGPRP  -0.0328
80. RRIRGRPPRLPRPRPRPDEQPRP  -0.0342
81. RRIRHRPPRLPRPRPRPEKQPRP  -0.0365
82. RRIRHRPPRLPRPRPRPEFIPRP  -0.0433
83. RRIRTRPPRLPRPRPRPQQAPRP  -0.0444
84. RRIRKRPPRLPRPRPRPYLRPRP  -0.0481
85. RRIRDRPPRLPRPRPRPIFCPRP  -0.0484
86. RRIRYRPPRLPRPRPRPWSHPRP  -0.05
87. RRIRRRPPRLPRPRPRPCLQPRP  -0.0554
88. RRIRYRPPRLPRPRPRPRQTPRP  -0.0574
89. RRIRHRPPRLPRPRPRPRWNPRP  -0.065
90. RRIRGRPPRLPRPRPRPILLPRP  -0.0679
91. RRIRARPPRLPRPRPRPWFVPRP  -0.0746
92. RRIRTRPPRLPRPRPRPHCWPRP  -0.0903
93. RRIRCRPPRLPRPRPRPYSYPRP  -0.0951
94. RRIRLRPPRLPRPRPRPLQEPRP  -0.101
95. RRIRQRPPRLPRPRPRPQEMPRP  -0.119
96. RRIRWRPPRLPRPRPRPNAIPRP  -0.123
97. RRIRVRPPRLPRPRPRPHVYPRP  -0.13
98. RRIRKRPPRLPRPRPRPIKGPRP  -0.141
99. RRIRNRPPRLPRPRPRPHYHPRP  -0.142
100. RRIRTRPPRLPRPRPRPGIFPRP  -0.146
101. RRIRWRPPRLPRPRPRPGNFPRP  -0.149
102. RRIRDRPPRLPRPRPRPWPKPRP  -0.149
103. RRIRLRPPRLPRPRPRPSRIPRP  -0.15
104. RRIRHRPPRLPRPRPRPKDTPRP  -0.15
105. RRIRCRPPRLPRPRPRPLKSPRP  -0.154
106. RRIRERPPRLPRPRPRPERYPRP  -0.162
107. RRIRPRPPRLPRPRPRPSYEPRP  -0.178
108. RRIRPRPPRLPRPRPRPDKIPRP  -0.184
109. RRIRYRPPRLPRPRPRPPHPPRP  -0.187
110. RRIRHRPPRLPRPRPRPYYSPRP  -0.191
111. RRIRPRPPRLPRPRPRPKCSPRP  -0.197
112. RRIRVRPPRLPRPRPRPGNEPRP  -0.203
113. RRIRIRPPRLPRPRPRPEHHPRP  -0.206
114. RRIRCRPPRLPRPRPRPPFHPRP  -0.224
115. RRIRCRPPRLPRPRPRPQFGPRP  -0.233
116. RRIRSRPPRLPRPRPRPHPMPRP  -0.236
117. RRIRKRPPRLPRPRPRPCPLPRP  -0.24
118. RRIRHRPPRLPRPRPRPSWNPRP  -0.264
119. RRIRVRPPRLPRPRPRPSPNPRP  -0.271
120. RRIRYRPPRLPRPRPRPEIMPRP  -0.272
121. RRIRARPPRLPRPRPRPILNPRP  -0.273
122. RRIRCRPPRLPRPRPRPFANPRP  -0.29
123. RRIRPRPPRLPRPRPRPFNIPRP  -0.293
124. RRIRCRPPRLPRPRPRPITKPRP  -0.297
125. RRIRNRPPRLPRPRPRPCLMPRP  -0.299
126. RRIRVRPPRLPRPRPRPAYHPRP  -0.316
127. RRIRIRPPRLPRPRPRPIHEPRP  -0.316
128. RRIRTRPPRLPRPRPRPSFEPRP  -0.328
129. RRIRVRPPRLPRPRPRPWDEPRP  -0.334
130. RRIRCRPPRLPRPRPRPRSFPRP  -0.342
131. RRIRSRPPRLPRPRPRPDMMPRP  -0.36
132. RRIRIRPPRLPRPRPRPASIPRP  -0.361
133. RRIRNRPPRLPRPRPRPMTRPRP  -0.386
134. RRIRFRPPRLPRPRPRPSWFPRP  -0.403
135. RRIRYRPPRLPRPRPRPQKLPRP  -0.418
136. RRIRIRPPRLPRPRPRPVILPRP  -0.423
137. RRIRTRPPRLPRPRPRPYAQPRP  -0.495
138. RRIRCRPPRLPRPRPRPSEYPRP  -0.497
139. RRIRPRPPRLPRPRPRPSNNPRP  -0.542
140. RRIRDRPPRLPRPRPRPNNHPRP  -0.543
141. RRIRIRPPRLPRPRPRPPNDPRP  -0.55
142. RRIRFRPPRLPRPRPRPFGTPRP  -0.587
143. RRIRDRPPRLPRPRPRPTHIPRP  -0.656
144. RRIRCRPPRLPRPRPRPSNNPRP  -0.707
145. RRIRERPPRLPRPRPRPYMVPRP  -0.832
146. RRIRIRPPRLPRPRPRPHYWPRP  -0.85
147. RRIRYRPPRLPRPRPRPSKLPRP  -0.917
148. RRIRIRPPRLPRPRPRPSFHPRP  -1.13
149. RRIRHRPPRLPRPRPRPYRKPRP  -1.23
150. RRIRVRPPRLPRPRPRPYHYPRP  -1.93
